Peptide text beside a SMILES is read from it. * marks the point of attachment. AOMK = acyloxymethyl ketone warhead replacing the C-terminal carboxyl; AMC = Cc1cc(=O)oc2cc(N*)ccc12; Cbz = O=C(OCc1ccccc1)*
How the values were obtained:
[1] = target: T1, cathepsin B (Homo sapiens, UniProt P07858); test: pH profile of cathepsin B activity with peptide-AMC substrates; type: biochemical; conditions: substrate 60 μM
T1 construct: purchased R&D Systems 953-CY-010
Procedure: Cathepsin B activity assayed by fluorogenic peptide substrates. Proteolytic assays of cathepsin B were conducted with Z-Arg-Lys-AMC and Z-Gly-Lys-AMC substrates in 50 mM citrate phosphate at pH 7.2 or pH 4.6, 1 mM EDTA, 100 mM NaCl, and 5 mM DTT. Assays with Z-Phe-Arg-AMC substrate were conducted under identical conditions and included 0.01% Tween20. Assays were performed in 384 well plates at 25° C. in a total volume of 30 μL. Fluorescence was quantified by a Biotek Synergy HTX microplate plate reader with excitation 360 nm, emission 460 nm, gain 50, top optics and read height 1 mm. Proteolytic activity is reported as relative fluorescent units per sec (RFU/sec), and was calculated using the highest slope recorded for 10 consecutive readings. Fluorescent readings were taken in 46 sec intervals and therefore activity is calculated over a total of 460 sec. To ensure that initial velocity is assessed, only readings within the first 30 minutes of the reaction were analyzed. RFU/sec readings were converted to enzyme specific activity of pmol/min/μg using the conversion factor of 1227 RFU per μM AMC.
To generate the pH profile of cathepsin B activity with the substrates Z-Arg-Lys-AMC, Z-Glu-Lys-AMC, and Z-Phe-Arg-AMC, 60 μM of each substrate and 0.04 ng/ul of cathepsin B were assayed in citrate phosphate buffers ranging from pH 2.2 to 7.4 in increments of 0.4 pH units, including pH 7.2. […]

[2] = target: T2, cathepsin L (Homo sapiens, UniProt P07711); test: Specificity of peptide-AMC substrates: cathepsin L; type: biochemical
T2 construct: purchased R&D Systems 952-CY-010

[3] = target: T3, cathepsin V (Homo sapiens, UniProt O60911); test: Specificity of peptide-AMC substrates: cathepsin V; type: biochemical
T3 construct: purchased R&D Systems 1080-CY-010

[4] = target: T4, cathepsin B in human neuroblastoma cells (SHSY5Y) (Homo sapiens, UniProt P07858); test: Neuroblastoma cells incubated with inhibitors, then cathepsin B assay; type: cell-based; conditions: cells incubated with 50 μM inhibitor for 6 hrs, washed, homogenate assayed with Z-Arg-Arg-AMC
T4 construct: endogenous in cells; host or cells: SH-SY5Y human neuroblastoma cells
Procedure: Cathepsin B in human neuroblastoma cells treated with inhibitors. Neuroblastoma cells (human SHSY5Y) were grown in media consisting of 50% MEMalpha, 50% F12-K, 10% heat-inactivated FBS at 37° C. in an atmosphere of 95% air and 5% CO2. Firstly, cell homogenates were prepared by collection of cells in 0.32 M sucrose and freeze-thawing. Secondly, cells were incubated with Z-Arg-Lys-AOMK or CA-074Me for 6 hours at 37° C., and washed 3 times in phosphate-buffered saline and homogenates were prepared in 0.32 M sucrose with freeze-thawing. CA-074Me is a methyl ester form of the active CA-074 selective inhibitor of cathepsin B (70); CA-074Me penetrates the cell and is converted by intracellular esterases to CA-074.
Cathepsin B activity in the homogenates were monitored with Z-Arg-Arg-AMC substrate (60 μM) with buffer conditions of 40 mM citrate-phosphate, pH 5.5, 5 mM DTT, 1 mM EDTA, 100 mM NaCl, and 1.2% DMSO, followed by incubation at 37° C. for 30 minutes and reading of AMC fluorescence. CA-074-senstive activity was monitored to indicate cathepsin B activity, since CA-074 is a selective inhibitor of this enzyme (70). Protein content was measured in homogenates with the DC protein assay kit. Cathepsin B specific activity was calculated as nmol AMC/μg/min, and reported as the mean±SD (with analyses for statistical significance, p<0.05 by student's t-test).

[5] = target: Recombinant human cathepsin B (R&D #953-CY-010) (human) (UniProt P07858); test: cell-based or functional assay
[6] = target: Recombinant human cathepsin B (R&D #953-CY-010) (human) (UniProt P07858); test: ratio of KI values, fluorogenic cathepsin B assay
[7] = target: Recombinant human cathepsin B (R&D #953-CY-010) (human) (UniProt P07858); test: inactivation kinetics, fluorogenic cathepsin B assay with Z-Phe-Arg-AMC, pH 4.6
[8] = target: Recombinant human cathepsin B (R&D #953-CY-010) (human) (UniProt P07858); test: inactivation kinetics, fluorogenic cathepsin B assay with Z-Phe-Arg-AMC, pH 7.2
[9] = target: cathepsin X (UniProt Q9UBR2 24-303, limits assumed); test: cell-based or functional assay
[10] = target: cathepsin C (R&D #1071-CY-010) (human, UniProt P53634 25-463); test: cell-based or functional assay
[11] = target: T5, cathepsin H (R&D #75116-CY-010) (human, UniProt P09668 116-335); test: cell-based or functional assay
T5 sequence (looked up): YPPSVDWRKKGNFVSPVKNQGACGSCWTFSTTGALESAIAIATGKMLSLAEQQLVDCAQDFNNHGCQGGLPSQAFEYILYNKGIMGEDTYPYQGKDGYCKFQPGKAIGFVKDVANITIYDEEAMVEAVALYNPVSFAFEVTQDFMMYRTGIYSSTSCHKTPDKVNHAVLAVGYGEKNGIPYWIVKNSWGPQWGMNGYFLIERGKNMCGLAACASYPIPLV

[12] = target: T6, cathepsin K (Abcam #ab157067) (human, UniProt P43235 115-329, limits assumed); test: cell-based or functional assay
T6 sequence (looked up): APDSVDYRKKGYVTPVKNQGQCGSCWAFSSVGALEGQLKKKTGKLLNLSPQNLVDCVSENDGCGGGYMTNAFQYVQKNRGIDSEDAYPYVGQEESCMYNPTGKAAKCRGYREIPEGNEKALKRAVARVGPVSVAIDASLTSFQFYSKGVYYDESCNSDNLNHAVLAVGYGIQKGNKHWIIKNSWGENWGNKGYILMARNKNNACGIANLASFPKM

[13] = target: cathepsin L (R&D #952-CY-010) (human, UniProt P07711 114-333); test: cell-based or functional assay
[14] = target: cathepsin S (R&D #1183-CY-010) (human, UniProt P25774 17-331); test: cell-based or functional assay
[15] = target: T7, cathepsin V (R&D #1080-CY-010) (human, UniProt O60911 18-334); test: cell-based or functional assay
T7 sequence (looked up): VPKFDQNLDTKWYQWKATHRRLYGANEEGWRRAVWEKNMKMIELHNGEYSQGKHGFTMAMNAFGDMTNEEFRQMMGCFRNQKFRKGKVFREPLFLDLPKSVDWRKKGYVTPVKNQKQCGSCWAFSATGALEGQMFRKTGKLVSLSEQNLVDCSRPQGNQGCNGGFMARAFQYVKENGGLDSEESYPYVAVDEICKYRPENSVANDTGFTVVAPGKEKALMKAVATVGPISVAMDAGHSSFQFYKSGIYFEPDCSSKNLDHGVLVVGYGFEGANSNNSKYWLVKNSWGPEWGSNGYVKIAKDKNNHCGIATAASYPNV

T2 sequence (P07711 114-333): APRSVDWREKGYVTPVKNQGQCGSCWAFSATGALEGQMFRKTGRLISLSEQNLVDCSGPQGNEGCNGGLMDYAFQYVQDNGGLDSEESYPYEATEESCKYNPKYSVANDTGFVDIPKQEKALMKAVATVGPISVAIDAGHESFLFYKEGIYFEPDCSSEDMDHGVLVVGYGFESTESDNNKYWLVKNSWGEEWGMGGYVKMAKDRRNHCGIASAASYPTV
cathepsin L (R&D #952-CY-010), sequence (P07711 114-333): as above
cathepsin C (R&D #1071-CY-010), sequence (P53634 25-463 limits assumed): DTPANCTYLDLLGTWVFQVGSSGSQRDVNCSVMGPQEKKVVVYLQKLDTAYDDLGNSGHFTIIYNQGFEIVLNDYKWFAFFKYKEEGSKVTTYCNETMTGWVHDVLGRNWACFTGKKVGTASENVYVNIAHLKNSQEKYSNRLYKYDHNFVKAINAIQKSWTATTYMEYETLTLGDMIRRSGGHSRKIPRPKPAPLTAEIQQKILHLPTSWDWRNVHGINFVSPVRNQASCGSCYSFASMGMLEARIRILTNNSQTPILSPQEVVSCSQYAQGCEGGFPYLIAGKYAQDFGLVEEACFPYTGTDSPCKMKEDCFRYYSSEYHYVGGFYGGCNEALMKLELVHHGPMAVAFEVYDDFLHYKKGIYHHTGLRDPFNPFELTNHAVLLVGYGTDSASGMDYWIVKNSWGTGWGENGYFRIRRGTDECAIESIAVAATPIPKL
cathepsin S (R&D #1183-CY-010), sequence (P25774 17-331 limits assumed): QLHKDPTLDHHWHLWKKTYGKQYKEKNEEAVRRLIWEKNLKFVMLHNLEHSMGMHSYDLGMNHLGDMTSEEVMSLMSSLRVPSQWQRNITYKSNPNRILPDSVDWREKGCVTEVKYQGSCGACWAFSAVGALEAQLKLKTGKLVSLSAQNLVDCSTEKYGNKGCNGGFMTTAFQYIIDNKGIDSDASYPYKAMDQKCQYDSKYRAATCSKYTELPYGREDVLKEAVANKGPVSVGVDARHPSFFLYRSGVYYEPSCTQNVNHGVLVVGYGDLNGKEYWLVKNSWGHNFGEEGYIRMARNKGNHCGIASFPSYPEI
cathepsin X, sequence (Q9UBR2 24-303 limits assumed): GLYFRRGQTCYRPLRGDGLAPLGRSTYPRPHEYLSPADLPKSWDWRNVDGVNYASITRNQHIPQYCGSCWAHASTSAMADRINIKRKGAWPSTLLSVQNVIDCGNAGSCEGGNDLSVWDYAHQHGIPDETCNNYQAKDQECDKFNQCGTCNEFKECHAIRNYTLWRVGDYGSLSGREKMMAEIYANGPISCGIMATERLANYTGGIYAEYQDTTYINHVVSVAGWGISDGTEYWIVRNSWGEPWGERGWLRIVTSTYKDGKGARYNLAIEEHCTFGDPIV

Cc1cc(=O)oc2cc(NC(=O)[C@H](CCCCN)NC(=O)[C@H](CCCNC(=N)N)NC(=O)OCc3ccccc3)ccc12 [Z-Arg-Lys-AMC] (Cbz-Arg-Lys-{AMC})
pH of maximal hydrolysis by cathepsin B [1]: 7.8 | substrate activity for cathepsin L ([2]; pH 7.2 (data not shown)): no activity | substrate activity for cathepsin V ([3]; pH 7.2 (data not shown)): no activity

Cc1cc(=O)oc2cc(NC(=O)C(CCCN=C(N)N)NC(=O)C(Cc3ccccc3)NC(=O)OCc3ccccc3)ccc12 (stereo not drawn) [Z-Phe-Arg-AMC] (Cbz-Phe-Arg-{AMC}; configuration not given here)
substrate activity for cathepsin L ([2]; pH 4.6): cleaved | substrate activity for cathepsin V ([3]; pH 4.6): cleaved

Cc1cc(=O)oc2cc(NC(=O)[C@H](CCCCN)NC(=O)[C@H](CCC(=O)O)NC(=O)OCc3ccccc3)ccc12 [Z-Glu-Lys-AMC] (Cbz-Glu-Lys-{AMC})
pH of maximal hydrolysis by cathepsin B [1]: 4.6 | substrate activity for cathepsin L ([2]; pH 4.6): no activity | substrate activity for cathepsin V ([3]; pH 4.6): no activity

CCCNC(=O)[C@H]1O[C@@H]1C(=O)N[C@H](C(=O)N1CCC[C@H]1C(=O)OC)[C@@H](C)CC [CA-074Me, reference compound]
inhibition of cellular cathepsin B activity [4]: completely inhibited

Z-Glu-Lys-AOMK (peptide)
IC50 of inhibition of cathepsin B activity (Z-Phe-Arg-AMC substrate, no pre-incubation), pH 4.6 [5]: 1.1 µM | IC50 of inhibition of cathepsin B activity (Z-Phe-Arg-AMC substrate, no pre-incubation), pH 7.2 [5]: 320 nM | IC50 of inhibition of enzyme activity, pH 4.6 [5]: 1.1 µM | IC50 of inhibition of enzyme activity, pH 7.2 [5]: 320 nM | fold greater potency (IC50) for cathepsin B than for cathepsin C, pH 7.2 [5]: 38 fold | fold greater potency (KI) at pH 7.2 compared to pH 4.6 [6]: 3.5 fold | Kinact/KI [7]: 2000 M⁻¹ s⁻¹ | Kinact/KI [8]: 8200 M⁻¹ s⁻¹

Z-Arg-Lys-AOMK (peptide)
IC50 of inhibition of cathepsin B activity (Z-Phe-Arg-AMC substrate, no pre-incubation), pH 4.6 [5]: 1.5 µM | IC50 of inhibition of cathepsin B activity (Z-Phe-Arg-AMC substrate, no pre-incubation), pH 7.2 [5]: 20 nM | IC50 of inhibition of cathepsin B activity, pH 6.8 (data not shown) [5]: 22 nM | IC50 of inhibition of enzyme activity, pH 4.6 [5]: 1.5 µM | IC50 of inhibition of enzyme activity, pH 7.2 [5]: 20 nM | fold greater potency (IC50) for cathepsin B than for cathepsin C, pH 7.2 [5]: 43 fold | fold greater potency (IC50) for cathepsin B than for cathepsin S, pH 7.2 [5]: 110 fold | fold greater potency (IC50) for cathepsin B than for cathepsin V, pH 7.2 [5]: 22 fold | reduction of cathepsin B activity (Z-Phe-Arg-AMC substrate) by 64 nM inhibitor, pH 4.6 [5]: 5% | reduction of cathepsin B activity (Z-Phe-Arg-AMC substrate) by 64 nM inhibitor, pH 7.2 [5]: 93% | fold greater potency (KI) at pH 7.2 compared to pH 4.6 [6]: 115 fold | Kinact/KI [7]: 1800 M⁻¹ s⁻¹ | Kinact/KI [8]: 110000 M⁻¹ s⁻¹

Cbz-Arg-Lys-{AOMK} [Z-Arg-Lys-AOMK]
% inhibition of enzyme activity at 16,000 nM inhibitor, pH 4.6 [9]: 21% | IC50 of inhibition of enzyme activity (MCA-Arg-Pro-Pro-Gly-Phe-Ser-Ala-Phe-Lys(Dnp)OH substrate), pH 4.6 [9]: > 16 µM | % inhibition of enzyme activity at 16,000 nM inhibitor, pH 4.6 [10]: 6% | IC50 of inhibition of enzyme activity (Gly-Arg-AMC substrate), pH 4.6 [10]: > 16 µM | IC50 of inhibition of enzyme activity (Gly-Arg-AMC substrate), pH 7.2 [10]: 850 nM | % inhibition of enzyme activity at 16,000 nM inhibitor, pH 7.2 [11]: 29% | IC50 of inhibition of enzyme activity (Arg-AMC substrate), pH 7.2 [11]: > 16 µM | % inhibition of enzyme activity at 16,000 nM inhibitor, pH 7.2 [12]: 31% | IC50 of inhibition of enzyme activity (Z-Phe-Arg-AMC substrate), pH 7.2 [12]: > 16 µM | % inhibition of enzyme activity at 16,000 nM inhibitor, pH 4.6 [13]: 32% | IC50 of inhibition of enzyme activity (Z-Phe-Arg-AMC substrate), pH 4.6 [13]: > 16 µM | % inhibition of enzyme activity at 16,000 nM inhibitor, pH 4.6 [14]: 13% | IC50 of inhibition of enzyme activity (Z-Phe-Arg-AMC substrate), pH 4.6 [14]: > 16 µM | IC50 of inhibition of enzyme activity (Z-Phe-Arg-AMC substrate), pH 7.2 [14]: 2.2 µM | % inhibition of enzyme activity at 16,000 nM inhibitor, pH 4.6 [15]: 63% | IC50 of inhibition of enzyme activity (Z-Phe-Arg-AMC substrate), pH 4.6 [15]: > 16 µM | IC50 of inhibition of enzyme activity (Z-Phe-Arg-AMC substrate), pH 7.2 [15]: 440 nM

Cbz-Glu-Lys-{AOMK} [Z-Glu-Lys-AOMK]
IC50 of inhibition of enzyme activity (Gly-Arg-AMC substrate), pH 4.6 [10]: 8.6 µM | IC50 of inhibition of enzyme activity (Gly-Arg-AMC substrate), pH 7.2 [10]: 12 µM | % inhibition of enzyme activity at 16,000 nM inhibitor, pH 4.6 [12]: 10% | IC50 of inhibition of enzyme activity (Z-Phe-Arg-AMC substrate), pH 4.6 [12]: > 16 µM | % inhibition of enzyme activity at 16,000 nM inhibitor, pH 4.6 [13]: 23% | IC50 of inhibition of enzyme activity (Z-Phe-Arg-AMC substrate), pH 4.6 [13]: > 16 µM | % inhibition of enzyme activity at 16,000 nM inhibitor, pH 4.6 [14]: 26% | % inhibition of enzyme activity at 16,000 nM inhibitor, pH 7.2 [14]: 30% | IC50 of inhibition of enzyme activity (Z-Phe-Arg-AMC substrate), pH 4.6 [14]: > 16 µM | IC50 of inhibition of enzyme activity (Z-Phe-Arg-AMC substrate), pH 7.2 [14]: > 16 µM | % inhibition of enzyme activity at 16,000 nM inhibitor, pH 7.2 [15]: 10% | IC50 of inhibition of enzyme activity (Z-Phe-Arg-AMC substrate), pH 4.6 [15]: 1.9 µM | IC50 of inhibition of enzyme activity (Z-Phe-Arg-AMC substrate), pH 7.2 [15]: > 16 µM

Source: patent US20240181068A1, “SELECTIVE NEUTRAL PH INHIBITOR OF CATHEPSIN B” (The Regents of the University of California, priority 2021, published 2024)
